Test results taken from the DeepSol protein solubility set.

Experiment: soluble on expression in E. coli; label from the status in PepcDB or PDB records

| Sequence | soluble on expression in E. coli |
| --- | --- |
| MTAQTLYDKLWNSHVVREEEDGTVLLYIDRHLVHEVTSPQAFEGLKMAGRKLWRIDSVVSTADHNTPTGDWDKGIQDPISKLQVDTLDKNIKEFGALAYFPFMDKGQGIVHVMGPEQGATLPGMTVVCGDSHTSTHGAFGALAHGIGTSEVEHTMATQCITAKKSKSMLISVDGKLKAGVTAKDVALYIIGQIGTAGGTGYAIEFGGEAIRSLSMESRMTLCNMAIEAGARSGMVAVDQTTIDYVKDKPFAPEGEAWDKAVEYWRTLVSDEGAVFDKEYRFNAEDIEPQVTWGTSPEMVLDISSKVPNPAEETDPVKRSGMERALEYMGLEAGTPLNEIPVDIVFIGSCTNSRIEDLREAAAIAKDRKKAANVQRVLIVPGSGLVKEQAEKEGLDKIFIEAGFEWREPGCSMCLAMNADRLTPGQRCASTSNRNFEGRQGNGGRTHLVSPAMAAAAAVTGRFTDIRMMA | not soluble |
| EGPLHWESTLTYTSYRDRWKERDPKVILAPYVKENDPVSAIYTLIPDGIKQAGEDTPAMPDLLPGQRKYKDVNGLDEEGNLTGKPDGKIDQADVVYLGTRAPKFTMGFSNDFRYKGFDLNIYLYASVGGYSYPYTQVEHGVYGGNGIQRLKDNNNFLADIKNRWTSDNMSSAMPSGEVNSYDSYGAPNWEKNTYLRLKSVTLGYDLSRLFKADKLKVRFYFSGQNLLTFTGYKGLDPEVENDRASYPQQKTFSFGLDVKF | not soluble |
| MAKKVAIYTRVSTTNQAEEGFSIDEQIDRLTKYAEAMGWQVSDTYTDAGFSGAKLERPAMQRLINDIENKAFDTVLVYKLDRLSRSVRDTLYLVKDVFTKNKIDFISLNESIDTSSAMGSLFLTILSAINEFERELEY | soluble |
| GAMDSSEMSTICDKTLNPSFCLKFLNTKFASPNLQALAKTTLDSTQARATQTLKKLQSIIDGGVDPRSKLAYRSCVDEYESAIGNLEEAFEHLASGDGMGMNMKVSAALDGADTCLDDVKRLRSVDSSVVNNSKTIKNLCGIALVISNMLPRN | soluble |
| MYHLKKQRIMGAVKRNTLSVLFIIKKAKLLKNGEAPVCMRITVNKRVAEVMIKRSIPVDLWNQKKECSKGKDRVAIELNHYINTVRAKVLQIHRELEIDNKPITADIIKDCFYGRDKVQRSLQEVYKEHNEKCRALIGKEYTESTVIKFDTSINRLKEYIRSCYHRDDIMLAELDGQFIRDFDFWLKTEKHCQNNSALKHLKNLKKVVRIALANDWIKKDPFYGIHFKQEEVNVEFLSREELDILMNKEFAIKRLEQVRDIFVFCCFTALAFVDVQQLSREHLIKDNSGALWIRKARQKTNQMCNIPVLSIPQRILRKYEDNAECIKKGVLLPVISNQRMNAYLKEIADLCGITKRLTTHVARHTAATIVFLANDVSMENVSKILGHSNIRMTQHYAKVLDSSIMRDMVNVEKNFK | not soluble |
| MMEENKRVLLGMSGGTDSSVAAMRLLEAGYEVTGVTFRFYELNDSTEYLEDARHLAERLGIRHITYDAREIFRKQIIEYFVHEYMVGHTPVPCTLCNNYLKWPLLSKIADEMGIFYIATGHYVRKVKVDDTCYITYAADSDKDQTFFLWGLKQDILRRMLLPMGDITKVEARAFAAERGFQKVAVKRDSLGVCFCPMDYRSFLKMWLVSNCQPQVSVGQPQVSAGQTWSAEVRRGRFVDEKGDFIAWHEGYPFYTVGQRRGLGIHLNRAVFVKEIRPEKNEVVLASLQALEKTEMLLKDWNIVNRERLLGHADIIVKIRYRKQENHCTVTVTLDNFLHVQLHEPLTAIASGQAAAFYKDGLLLGGGIIVE | not soluble |
| MSLEKQFFHPDRVKYDKDCFTIEGKDIFILSAAFHYFRCPQELWRDRFRKIKEAGFNTVETYVPWNWHERNMPKSVDDYSQCNFDDLKAWLHMAHEEFGLYTIVRPGPFICAEWAGGAYPRWLAKFCPDSYDTSFWLRSNHPEHMKWSEHWYNAVCRVFSEEQLTRKQPGEKGIIMVQLENEYIYFDMESEKKEEFLRVLSDACIRNGIDVPLFTCVTPEVRGSHDPVISQLFDMDNQYVWWNMHEAKSRIEKLKAEQPNAPAFVCELQGGWFSTVGGRLSEDSYLDGRHARGMALMAMAGGSTGLNYYMFFGGTHFAGWGARRMTTTYDYGAPLKENGGVGEKYAAVKGIGEVVDKFGGLLVRSRPVRFDVQGADNLTIGIRRAADGTLFVFLLNRDKKQAFRQLVNLTVEGKPMRIDCQLAALDSKLLVVHAGTDTVEWYPREQTLPEREGHHHHHH | soluble |
| MDFDNFPIEQLSHLISFDIEWTETSVADAIKIKDIILRSPHFESASILSHCVNKIKPEVLKVFHPNYIATDRDYNEMLELRNDYFRSIVYAGGSSIDIYNVNLEDPDDFE | not soluble |
| MNLKQAFIDNNSIRLGLSADTWQEAVRLAVQPLIDSKAVTSAYYDAIIASTEKYGPYYVLMPGMAMPHAEAGLGVNRNAFALITLTKPVTFSDGKEVSVLLTLAATDPSIHTTVAIPQIVALFELDNAIERLVACQSPKEVLEMVEESKDSPYLEGMDLNA | soluble |
| DRGRMANIFGANNFYYAKSQAMLYTVSQNADFITAGLVDPVFLPLGNQQRAATHLNEPKSQKILFIVAESWGLPANPELQNATFAKLLAQKDRFSVWESGSFPFIGATVEGEMRELCAYGGLRGFALRRAPDEKFARCLPNRLKQEGYATFAMHGAGSSLYDRFSWYPRAGFQEIKTAENLIGKKTCAIFGGVCDSELFGEVSAFFKKHDKGLFYWMTLTSHADYPESDIFNHRLKCTEYGLPAETDLCRNFSLHTQFFDQLADLIQRPEMKGTEVIIVGDHPPPVGNLNETFRYLKQGHVAWLNFKIK | not soluble |
| MATNESLKEQLAKRNGRKPAANGNGEPITLKALLASPKVKKRFEEVLDKRAPQFMTSIINLYSNDSGLQKCDPMTVISSAMVAASLDLPIDKNLGYAWIVPYYDRKTKSYRAQFQLGYKGYIQLALRSGQYRYINAIPVRKGELIKWDPLTEEIEIDFEARESDEVIGYAAFFELLNGFRKTVYWRKEDVEAHRQKYSKSGFGWENDWDAMALKTVIKSLLSRWGILSVEMQKAVIEDDEERLNPPADNVVEIEPEKPEVPENDEPVFELPLDVEVEVPFEEDEKDGDDQEG | not soluble |
| ETRECKEALAKSEMNVNMKCQLPNFTAETPIQNVILHEHHIFLGATNYIYVLNEEDLQKVAEYKTGPVLEHPDCFPCQDCSSKANLSGGVWKDNINMALVVDTYYDDQLISCGSVNRGTCQRHVFPHNHTADIQSEVHCIFSPQIEEPSQCPDCVVSALGAKVLSSVKDRFINFFVGNTINSSYFPDHPLHSISVRRLKETKDGFMFLTDQSYIDVLPEFRDSYPIKYVHAFESNNFIYFLTVQRETLDAQTFHTRIIRFCSINSGLHSYMEMPLECILTEKRKKRSTKKEVFNILQAAYVSKPGAQLARQIGASLNDDILFAVFAQSKPDSAEPMDRSAMCAFPIKYVNDFFNKIVNKNNVRCLQHFYGPNHEHCFNRTLLRNSSGCEARRDEYRTEFTTALQRVDLFMGQFSEVLLTSISTFIKGDLTIANLGTSEGRFMQVVVSRSGPSTPHVNFLLDSHPVSPEVIVEHTLNQNGYTLVITGKKITKIPLNGLGCRHFQSCSQCLSAPPFVQCGWCHDKCVRSEECLSGTWTQQICLPAIYKVFPNSAPLEGGTRLTICGWDFGFRRNNKFDLKKTRVLLGNESCTLTLSESTMNTLKCTVGPAMNKHFNMSIIISNGHGTTQYSTFSYVDPVITSISPKYGPMAGGTLLTLTGNYLNSGNSRHISIGGKTCTLKSVSNSILECYTPAQTISTEFAVKLKIDLANRETSIFSYREDLHHHHHH | soluble |
| STSAAQQGRNQNGEYNILDSIIAETRLSPDDEAYDIAKRGVSAFIEELLKPQNDGEPVKKAMVDRMIAEIDAKLSTQMDEILHHPDFQALESAWRGLQLLVDRTNFRENIKIEILSVSKQDLLDDFEDSPEVMQSGLYKHIYTAEYGQFGGQPVGAIIANYYMSPSSPDVKLMQYVSSVACMAHAPFVAAAGPKFFGLESFTGLPDLKDLKDHFEGPQFAKWQSFRQSEDSRYVALTVPRFLLRTPYDPEENPVKSFAYKETVANSHEHYLWGNTAYAFGTKLTDSFAKYRWCPNIIGPQSGGAVEDLPLHHFESMGEIETKIPTEVLVSDRREYELAEEGFISLTMRKGSDNAAFFSASSVQKPKFFGISAEGKAAELNYKLGTQLPYMMIVNRLAHYLKVLQREQLGSWKERTDLELELNKWIRQYVADQENPSAEVRGRRPLRAAQIIVSDVEGEPGWYRVSLNVRPHFKYMGADFTLSLVG | not soluble |
| MSLNTIYEPSSICMIRTPLLSVEFFNLFLNTEQIKYSDLQLNAQMKESILTTTFNLYCTLQEINFDGDNKKVRDAKESLLKYLIRMSTRPTPFGLLSGINLGHFVNEPTRLKVGNSIQKYVKVDGEWLYKLVSYIESIDEYYQNLKVIWNSKAHIINDRIYLNEQSAIYLNNNKDTSFSIKNSELLVFIKTTVTNNNITFSNLAEKINQEFEINDITKVKVYIHNLVSKEIIYSTIRPPLSYSDNLNYILNKLSLHNDDFVKKIREIQKLILAYEKTEIGFGEELYKDIIHHMKALFKCKNYLQIDTKIDMINNYLHQDIATNISEAAYLLWLLSRNNIGFTDLKVLHNRFIEKYGFEQLVNIKDLISDITGFGTTIFQEEETDGNNIVMLKQKFLHALRNNDEIVINEKDVESLINDNEINHYHAPMSADVYAELYLGRFYNQYNELIVISPLTASFNAGATFGRFHHLIDTETLAKLEHEKGHYYQKMICDDNVEMISINNIPKYPRNHNVLTNHDSYEYSLNLGSSNSYSKYELTLDDIYVGATFNKLYLYSSQLNKRVIFESNNMYNFLKECNLYRLLREISMESVKCIEPMNDVSIDSFSYSPRIRYKNVILKPAYWKINEMVLPLPKNEEWDQQFLKYQEQFNIPNIVNLVYGDNKLLLNLSLANHRYLLMKEYKKHKRVRLVESFLPQSKNDHVYEIVTPIYKKSSYRGEGHHHHHH | not soluble |
| MDQTNENVKESEPPSDDGPPILSVLCSLVDEIGSLRNENLRLKTRLVPAPRNTKNVVQRMSAMLEHRGSSIFPKLRRANRSSESMEIRNGARERLSTPPRKETSNSMNTSSDVSYGRNRAPPIVRPEQSDSEIDEQIFDDDDHRSRDTTRRCDSVNVPRHQNDNSTSACTSPSSASSSRDPSETMTTSRSSFLDLLGLRRRSTHIPQPTSYSKTTALKQTNKKRRRKISGNDNDSESSGMYANMEDHCSRVPSKPPRPASYYRRDDSEDSDCLRQMRQRKTASSLNVNNYEHRHEDMYRVSRETQWQHEKDNLMAEIEEMKMRNNRLVEQLREKSQQQSKLQCQLHKAEMQVNALSRRCALSEALDRLTLDERMEKSATSWIKKIEERLRIFENQMQNAKLEAATAHQMALNSSCHEKDAHQNCLEKLESLQREHMRVIHSSLVEIGVDEINMKRRLENLPTYEALYAFTHSVVRRLNEARWAVIEKTNETSRAQIDLIVSQSSHLVSLAQLERLKIMQTLRGKRQKRPSSFHGHSVSERNIRQDLSFYLPLKLHGSRVENSRRTIKKNAIVGNDRNIEEEFLKLFSYSKDFSMELAAPPERRANTRIETMMREMNGNGRPIIRRGPSGVSNSNIMRDRVTREVPSNRRPISLVETEERRIRRNEETKRSIKFMKTNSIDHGYNAYEPPPASRTTTTTIVASTQDISNNVHSPHGTPVFTRRIIIPVKGNAYDIVPEGTTANIVPANIPQMGRVRKLERAFSAESRNTVDSLHDREEQRRERRDHVEGGVERRQSKIQRSQPVSRLKQPSVQLSKFRTIENNGANREPPSSSILRPRTLEPQTSIPRITTSPPESRIPTPSSRHGNEKRGWLERLKGIGKL | not soluble |
| MELNGKAPSRRQLNIQHWNTAEGARVLFVEARELPMFDLRVTFAAGSSQDGGTPGLAALTNAMLNEGVAGKDVTAIAEGFEGLGADFGNGSYRDMAVASLRSLSAKDKREPALKLFTEVAGKPTFPEDALKRIKNQMLAGFEYEKQNPGKIAGKALFGKLYGDHPYAHPSDGTAESITGISLAQLRAFHAKAYTGGNAVIALVGDLSRAEAEAIAAQVSAGLPKGPALAAPAQPALEHHHHHH | soluble |
| TYKKPSDAELKRTLTEEQYQVTQNSATEYAFSHEYDHLFKPGIYVDVVSGEPLFSSADKYDSGSGWPSFTRPIDAKSVTEHDDFSYNMRRTEVRSHAADSHLGHVFPDGPRDKGGLRYSINGASLKFIPLEQMDAAGYGALKSKVK | soluble |
